Results as given in US20210206877.

Target: certain anti-BACE1 antibodies (tested in the FRET short substrate assay)

B1: BACE1 ECD (as used in the enzyme activity assay) (protein)
chain: TQHGIRLPLRSGLGGAPLGLRLPRETDEEPEEPGRRGSFVEMVDNLRGKSGQGYYVEMTVGSPPQTLNILVDTGSSNFAVGAAPHPFLHRYYQRQLSSTYRDLRKGVYVPYTQGKWEGELGTDLVSIPHGPNVTVRANIAAITESDKFFINGSNWEGILGLAYAEIARPDDSLEPFFDSLVKQTHVPNLFSLQLCGAGFPLNQSEVLASVGGSMIIGGIDHSLYTGSLWYTPIRREWYYEVIIVRVEINGQDLKMDCKEYNYDKSIVDSGTTNLRLPKKVFEAAVKSIKAASSTEKFPDGFWLGEQLVCWQAGTTPWNIFPVISLYLMGEVTNQSFRITILPQQYLRPVEDVATSQDDCYKFAISQSSTGTVMGAVIMEGFYVVFDRARKRIGFAVSACHVHDEFRTAAVEGPFVTLDMEDCGYNIPQTDESTLMT
  Modulation of BACE1 activity (cleavage of FRET short substrate Mca-SEVNLDAEFRK(Dnp)RR-NH2): both enzyme inhibition (positive percentages), and enzyme activation (negative values) were observed
